From patent US20210060116A1 (published 2021)

How the values were obtained:
[1] = molecular target: Recombinant human p65 protein (r-p65) with DDK tag (catalog number TP320780) (human) (UniProt Q04206); test: plate ELISA, Scatchard analysis by the method of Friguet et al.
[2] = molecular target: Recombinant human p65 protein (r-p65) with DDK tag (catalog number TP320780) (human) (UniProt Q04206); test: plate ELISA, peptide 20-640 µM and r-p65, anti-DDK detection; at the lowest concentration evaluated
[3] = molecular target: T1, Recombinant human p65 protein (r-p65) with DDK tag (catalog number TP320780) (human, UniProt Q04206 1-551); test: score table: the mark stands in the column >3 of KD (uM)
T1 construct: mature; also called r-p65-DDK; human r-p65; not shown: DDK tag
T1 sequence (Q04206 whole entry): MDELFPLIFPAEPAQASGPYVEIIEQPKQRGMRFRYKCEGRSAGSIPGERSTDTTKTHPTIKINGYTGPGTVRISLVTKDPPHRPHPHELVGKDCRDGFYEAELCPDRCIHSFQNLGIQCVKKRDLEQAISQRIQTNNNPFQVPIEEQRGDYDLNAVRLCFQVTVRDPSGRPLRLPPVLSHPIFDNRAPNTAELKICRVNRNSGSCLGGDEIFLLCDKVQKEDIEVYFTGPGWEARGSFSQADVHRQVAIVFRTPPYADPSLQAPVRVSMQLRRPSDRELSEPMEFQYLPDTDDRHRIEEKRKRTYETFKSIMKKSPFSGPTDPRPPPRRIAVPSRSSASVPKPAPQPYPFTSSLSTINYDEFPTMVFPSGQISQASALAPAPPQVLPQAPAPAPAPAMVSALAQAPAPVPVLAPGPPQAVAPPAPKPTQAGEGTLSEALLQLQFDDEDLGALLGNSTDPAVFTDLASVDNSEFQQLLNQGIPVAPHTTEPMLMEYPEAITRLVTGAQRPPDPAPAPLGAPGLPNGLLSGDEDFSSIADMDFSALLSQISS

[4] = molecular target: T1, Recombinant human p65 protein (r-p65) …; test: score table: the mark stands in the column <3 of KD (uM)

Chain of Recombinant human p65 protein (r-p65) with DDK tag (catalog number TP320780) (human) (Q04206 whole entry): as above

Ac-APKPYQPRG-NH2 [GA-1 (GILZ analog 1, as labelled in Examples 3 to 6)]
Kd [1]: 2.29 µM
percent bound r-p65 [2]: > 25%

Ac-EPAPEQPDG-NH2 (also called Analog 8) [PGA-5]
Kd [3]: > 3 µM

Ac-EPAPLAPYG-NH2 (also called Analog 3; GA-2) [PGA-2]
Kd [4]: < 3 µM

Ac-EPAPLAPYG-NH2 [GA-2 (GILZ analog 2, as labelled in Examples 3 to 6)]
Kd [1]: 3.24 µM
percent bound r-p65 [2]: > 25%

Ac-EPAPYQPEG-NH2 (also called Analog 14) [PGA-3]
Kd [3]: > 3 µM

Ac-EPAPESPQV-NH2 (also called Analog 7) [PGA-4]
Kd [3]: > 3 µM

Ac-APKPYQPRG-NH2 (also called Analog 20; GA-1) [PGA-1]
Kd [3]: > 3 µM
